The values below come from paper PMC314469, “Protein Interaction Networks by Proteome Peptide Scanning” (PLoS Biology, 2004).

Common to all, as to test: SPOT array
Assay [1] has as its target T1, Boi1 SH3 (BOI1_YEAST), P38041.
T1 chain: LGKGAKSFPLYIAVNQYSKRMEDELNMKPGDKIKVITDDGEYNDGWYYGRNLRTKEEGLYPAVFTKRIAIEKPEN

Assay [2] addresses T2, Boi2 SH3 (BOI2_YEAST), P39969.
T2 chain: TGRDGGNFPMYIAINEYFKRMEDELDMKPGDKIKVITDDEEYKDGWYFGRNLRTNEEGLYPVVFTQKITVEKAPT

In assay [3] the target is T3, Rvs167 SH3 (RV167_YEAST), P39743.
T3 chain: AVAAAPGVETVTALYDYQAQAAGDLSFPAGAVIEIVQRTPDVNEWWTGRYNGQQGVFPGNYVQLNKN

The target in assay [4] is T4, Yfr024 SH3 (LSB3_YEAST), P43603.
T4 chain: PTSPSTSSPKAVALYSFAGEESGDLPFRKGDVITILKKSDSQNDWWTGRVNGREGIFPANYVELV

Assay [5] has as its target T5, Yhr016c SH3 (YSC84_YEAST), P32793.
T5 chain: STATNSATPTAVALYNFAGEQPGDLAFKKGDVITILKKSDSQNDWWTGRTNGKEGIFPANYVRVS

With SNVPTTPSRELNGT [YNL309W 346-359], the normalised SPOT signal, Boehringer light units (BLU); mean over the file's lines of this peptide was 33.2 in assay [1]; 71.4 in assay [2]; 37.4 in assay [3]; 272 in assay [4]; 210 in assay [5].
In the same order, the values of SMYPGLPSRLEKEL [YDL029W 307-320] are 77.3, 119, 815, 6190 and 3680.
The like results for SLPPTPPYKAHKKK [YBR007C 353-366] were, in that order, 114, 22.9, 29.4, 758 and 108.
The like results for SNSPQIPKKKVKDQ [YBL004W 1825-1838] were, in that order, 698, 64, 34.4, 1830 and 151.
On to SNSPISPHKLIYKN [YDR216W 473-486], for which the normalised SPOT signal, Boehringer light units (BLU); mean over the file's lines of this peptide in assay [1] is 71.5; in assay [2] it was 0; in assay [3] it was 51.3; in assay [4], 0; in assay [5] it was 143.
For SLSPKDPERARLLS [YMR145C 263-276], the normalised SPOT signal, Boehringer light units (BLU); mean over the file's lines of this peptide stood at 79 in assay [1]; 38.1 in assay [2]; 80.3 in assay [3]; 97.9 in assay [4]; 158 in assay [5].
Consider SNSPSPPEKINNKR [YMR086W 654-667], for which the normalised SPOT signal, Boehringer light units (BLU); mean over the file's lines of this peptide in assay [1] came out at 61.1; in assay [2] it was 51.3; in assay [3] it was 47; in assay [4], 116; in assay [5] it was 136.
With SMSPLPPARANKSD [YLR162W 51-64], the normalised SPOT signal, Boehringer light units (BLU); mean over the file's lines of this peptide was 120 in assay [1]; 460 in assay [2]; 2610 in assay [3]; 16600 in assay [4]; 17100 in assay [5].
The like results for SNNPSKPRKYKTKS [YIL130W 110-123] were, in that order, 74.1, 35.7, 42.6, 307 and 61.8.
The like results for SMEPHSPKKAKSVE [YIL112W 773-786] were, in that order, 58.3, 72.7, 85.5, 1230 and 133.
The like results for SMTPDSPVKSDLTS [YNL233W 804-817] were, in that order, 85.9, 38.5, 31.9, 407 and 533.
With SLAPVYPLKSLLRI [YDR332W 665-678], the normalised SPOT signal, Boehringer light units (BLU); mean over the file's lines of this peptide in assay [1] stood at 7610; in assay [2] it was 54.3; in assay [3] it was 45.5; in assay [4] it was 782; in assay [5], 173.
The like results for SLDPDRPEKDSVEE [YIR032C 171-184] were, in that order, 83.1, 46.2, 20.5, 126 and 93.6.
The like results for SNFPDFPLKKYLKN [YER087W 333-346] were, in that order, 59.5, 15.4, 17.9, 382 and 201.
The like results for SNDPIPPPRKVSDV [YGR097W 457-470] were, in that order, 76.6, 13.3, 161, 8060 and 2640.
